Data reported in patent US20190023748A1 (NAVIGEN, published 2019).
Bridge positions count the residues as written; N and C are the ends. Square brackets hold non-standard residues; d marks the D form. Primed or numbered codes have the meaning given here. PEG4′ = not defined here

Experiments:
Experiment in all cases: cell-based or functional assay
[1] = target: HIV-1 gp41 of isolate NP1525 (AE) (HIV-1 isolate NP1525)
[2] = target: HIV-1 gp41 of isolate NI1149 (AE) (HIV-1 isolate NI1149)
[3] = target: HIV-1 gp41 of isolate NI1052 (AE) (HIV-1 isolate NI1052)
[4] = target: HIV-1 gp41 of isolate 93UG065 (clade D) (HIV-1 isolate 93UG065)
[5] = target: HIV-1 gp41 of isolate 873 (clade B) (HIV-1 isolate 873)
[6] = target: HIV-1 gp41 of isolate 55815 (AG) (HIV-1 isolate 55815)
[7] = target: HIV-1 gp41 of isolate CM235/GS020 (AE) (HIV-1 isolate CM235/GS020)
[8] = target: HIV-1 gp41 of isolate DJ263/GS003 (AG) (HIV-1 isolate DJ263/GS003)
[9] = target: HIV-1 gp41 of isolate KER2018 (clade A) (HIV-1 isolate KER2018)
[10] = target: HIV-1 gp41 of isolate CAM1475MV (AG) (HIV-1 isolate CAM1475MV)
[11] = target: HIV-1 gp41 of isolate KNH1135 (clade A) (HIV-1 isolate KNH1135)
[12] = target: HIV-1 gp41 of isolate TZA246 (clade C) (HIV-1 isolate TZA246)
[13] = target: HIV-1 gp41 of isolate NI1046 (AE) (HIV-1 isolate NI1046)
[14] = target: HIV-1 gp41 of isolate BK132/GS009 (clade B) (HIV-1 isolate BK132/GS009)
[15] = target: HIV-1 gp41 of isolate TZA68 (clade C) (HIV-1 isolate TZA68)
[16] = target: HIV-1 gp41 of isolate CAM0005 (AG) (HIV-1 isolate CAM0005)
[17] = target: HIV-1 gp41 of isolate NP1251 (AE) (HIV-1 isolate NP1251)
[18] = target: HIV-1 gp41 of isolate 301965 (clade D) (HIV-1 isolate 301965)
[19] = target: HIV-1 gp41 of isolate KNH1144 (clade A) (HIV-1 isolate KNH1144)
[20] = target: HIV-1 gp41 of isolate CM240/GS022 (AE) (HIV-1 isolate CM240/GS022)
[21] = target: HIV-1 gp41 of isolate BZ167 (clade B) (HIV-1 isolate BZ167)
[22] = target: HIV-1 gp41 of isolate CAM0002 (AG) (HIV-1 isolate CAM0002)
[23] = target: HIV-1 gp41 of isolate A07412M1 (clade D) (HIV-1 isolate A07412M1)
[24] = target: HIV-1 gp41 of isolate MN/H9 (clade B) (HIV-1 isolate MN/H9)
[25] = target: HIV-1 gp41 of isolate BX08 (clade B) (HIV-1 isolate BX08)
[26] = target: HIV-1 gp41 of isolate 20635-4 (clade C) (HIV-1 isolate 20635-4)
[27] = target: HIV-1 gp41 of isolate CAM0008 (AG) (HIV-1 isolate CAM0008)
[28] = target: HIV-1 gp41 of isolate US4/GS007 (clade B) (HIV-1 isolate US4/GS007)
[29] = target: HIV-1 gp41 of isolate 92UG029 (clade A) (HIV-1 isolate 92UG029)

B1: CPT31 (cholesterol-PIE12-2-trimer with PEG32 fourth-arm spacer) (peptide)
peptide: Ac-[dH][dP][dC][dD][dY][dP][dE][dW][dQ][dW][dL][dC][dE][dL]G[PEG4′]K-NH2
modifications: disulfide 3-12 (inferred); not fully specified (some residues); numbers in words are those of the source; also: PIE12-2 trimer on scaffold, fourth arm PEG28 + PEG4 with cholesteryl carbamate
[1]
  1 nM inhibition: 98.8%
  10 nM inhibition: 99.3%
[2]
  1 nM inhibition: 92.9%
  10 nM inhibition: 97.4%
[3]
  1 nM inhibition: 98%
  10 nM inhibition: 99.7%
[4]
  1 nM inhibition: 93.7%
  10 nM inhibition: 94.4%
[5]
  1 nM inhibition: 93.6%
  10 nM inhibition: 98.7%
[6]
  1 nM inhibition: 98.8%
  10 nM inhibition: 99.5%
[7]
  1 nM inhibition: 81.8%
  10 nM inhibition: 98.7%
[8]
  1 nM inhibition: 96.7%
  10 nM inhibition: 99.2%
[9]
  1 nM inhibition: 94.8%
  10 nM inhibition: 97.5%
[10]
  1 nM inhibition: 98.3%
  10 nM inhibition: 98.8%
[11]
  1 nM inhibition: 80.6%
  10 nM inhibition: 83.4%
[12]
  1 nM inhibition: 98.3%
  10 nM inhibition: 98.4%
[13]
  1 nM inhibition: 99.1%
  10 nM inhibition: 99.7%
[14]
  1 nM inhibition: 99.7%
  10 nM inhibition: 99.8%
[15]
  1 nM inhibition: 97.7%
  10 nM inhibition: 99.7%
[16]
  1 nM inhibition: 98.4%
  10 nM inhibition: 99.8%
[17]
  1 nM inhibition: 97%
  10 nM inhibition: 98.4%
[18]
  1 nM inhibition: 96.1%
  10 nM inhibition: 97.7%
[19]
  1 nM inhibition: 78.2%
  10 nM inhibition: 80.6%
[20]
  1 nM inhibition: 83.8%
  10 nM inhibition: 95%
[21]
  1 nM inhibition: 99.4%
  10 nM inhibition: 99.8%
[22]
  1 nM inhibition: 95.6%
  10 nM inhibition: 99.7%
[23]
  1 nM inhibition: 92%
  10 nM inhibition: 96.7%
[24]
  1 nM inhibition: 99.3%
  10 nM inhibition: 100%
[25]
  1 nM inhibition: 94.2%
  10 nM inhibition: 99.5%
[26]
  1 nM inhibition: 99%
  10 nM inhibition: 99.6%
[27]
  1 nM inhibition: 96.8%
  10 nM inhibition: 99.7%
[28]
  1 nM inhibition: 91.1%
  10 nM inhibition: 98.7%
[29]
  1 nM inhibition: 95.2%
  10 nM inhibition: 98.2%
